Test system: MS2 coat protein
Assay: apparent KD of MS2 coat protein; designed switch direction (-1 OFF switch, 1 ON switch): -1; higher = weaker reporter binding
Outline: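 Designed RNA switches with common flanks were made on Illumina chips by stalled E. coli RNA polymerase. Titration with SNAP-549-labelled MS2 coat protein doubled from 0.7 or 1.5 nM up to 3 µM. Apparent KD is each design's median over clusters after curve-fitting normalised fluorescence.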

[1] = input ligand: microRNA oligo, concentration not stated
[2] = Eterna round: R95, input ligand: FMN 200 uM
[3] = Eterna round: R95, input ligand: microRNA oligo, concentration not stated
[4] = Eterna round: R95, input ligand: none

“CUAGCGAUUGUAGGAUAUCGGACUGUUUCAGUCUGAGAAGGACAUGAGGAUCACCCAUGUGAAGGAUCGUGAGAUCCACGCUAG [JL ENG1 3.79] (Eterna round: R96, puzzle: Exclusion NG 1)” was tested. Which “apparent KD of MS2 coat protein” value (input ligand: FMN 200 uM) did it give?
Its value is 0.112 µM.

And the “apparent KD of MS2 coat protein” value [1]?
Its value is 0.0179 µM.

And the “apparent KD of MS2 coat protein” value (input ligand: none)?
The value was 0.022 µM.

What does the source list for “GUCACAUGGACAUAGGAUCACAUGAGGAUCACCCAUGUGACUAACAAGCUUUUUGCUCGUCUUAUGUCCAUGUGAAU [Stov1/15-A3] (Eterna round: R97, puzzle: Sensor, turn-off variant 1)”?
apparent KD of MS2 coat protein (input ligand: FMN 200 uM): 0.013 µM; apparent KD of MS2 coat protein (input ligand: none): 0.0129 µM

How did the “apparent KD of MS2 coat protein” value (input ligand: FMN 200 uM) turn out when “GUAACAUGCUGGUGAUCAUACAUGAGGAUCACCCAUGUAACAAGCUUUUUGUUCGUCUUAUAAGAUUACUAGUAUGU [Stov1/10-B2] (Eterna round: R97, puzzle: Sensor, turn-off variant 1)” was run?
Its value is 0.033 µM.

What about the “apparent KD of MS2 coat protein” value (input ligand: none) of the same sequence?
Its value is 0.0397 µM.

With “GCCGAAAAUGUGAGGAUAUACCUAUGGAUACAUAGGUAGAAGGCACAUGAGGAUCACCCAUGUCCAAUAACGGC [Eli bmx4 4.25] (Eterna round: R97, puzzle: Brourd's mod of Exclusion 4)” as the sequence, how does the “apparent KD of MS2 coat protein” value (input ligand: FMN 200 uM) read?
The value was 0.528 µM.

What about the “apparent KD of MS2 coat protein” value (input ligand: none) of the same sequence?
The value was 0.223 µM.

Which “apparent KD of MS2 coat protein” value [2] does the source give for “GCUUGGCGAGGAUAUACAUGAGGAUCACCCAUGUGAGAGAAGAAAGUGAGGAAGAAAAGUAGAAGGCGCUGAGG [Mat - Exclusion 3 - Mod of Salish D61] (puzzle: Exclusion 3)” here?
Its value is 0.372 µM.

And the “apparent KD of MS2 coat protein” value [3]?
Its value is 0.0564 µM.

And the “apparent KD of MS2 coat protein” value [4]?
The value was 0.063 µM.

For “AAGUAGACGGUGAGGAUAUAGGUGGAAUGACCCAUUUAGAAGGUACAUGAGGAUCACCCAUGUGGGUAACGUCG [Brourd's EX4 #28] (Eterna round: R97, puzzle: Brourd's mod of Exclusion 4)”, which “apparent KD of MS2 coat protein” value (input ligand: FMN 200 uM) is on record?
Its value is 0.156 µM.

What about the “apparent KD of MS2 coat protein” value (input ligand: none) of the same sequence?
The value was 0.166 µM.

With “GUUAACGUAGGAUAUUAGUACAUACACAUGAGGAUCACCCAUGUUUAGUGGGUCUAAGAAUAAGAAGGGCGAAGAA [EX5 #25] (Eterna round: R97, puzzle: Exclusion 5)” as the sequence, how does the “apparent KD of MS2 coat protein” value (input ligand: FMN 200 uM) read?
Its value is 0.117 µM.

What about the “apparent KD of MS2 coat protein” value (input ligand: none) of the same sequence?
Its value is 0.13 µM.

What does the source list for “GGUAAGUGUGACUUGGGUGACAUGAGGAUCACCCAUGUCACAAGCUUGUUGCUCGCCUUGUAAUUAACCCAUGUCAC [LRO Sensor-off var1-28 mod of Stov1-13-A1 by Brourd] (Eterna round: R97, puzzle: Sensor, turn-off variant 1)”?
apparent KD of MS2 coat protein (input ligand: FMN 200 uM): 0.0173 µM; apparent KD of MS2 coat protein (input ligand: none): 0.0186 µM

Which results are given for “AGGGAACGAGGAUAUCGAUGGUGGAACAUGAGGAUCACCCAUGUAUGAGAUAGAGUAGGGCGAGAAGGCGUUAAGA [JR_E5_Sub051] (puzzle: Exclusion 5)”?
apparent KD of MS2 coat protein [2]: 0.0476 µM; apparent KD of MS2 coat protein [3]: 0.0556 µM; apparent KD of MS2 coat protein [4]: 0.0849 µM

Which “apparent KD of MS2 coat protein” value [3] does the source give for “CCGGUAUAGGAGGAUAUAGGAGUCGAUAGACACCUAGAAGGCCUGACAUGAGGAUCACCCAUGUGUCCUUCCGG [Fiskers Ex 6 - 95] (puzzle: Exclusion 6)” here?
Its value is 0.0177 µM.

For “CCACGACAUGAGGAUCACCCAUGUCAGGAUAUCCCUCAUUGUAUGAAAAUACAAUGAGGGAGAAGGGACGUGAC [SS1 Omei 2] (puzzle: Exclusion 1)”, which “apparent KD of MS2 coat protein” value [3] is on record?
The value was 0.0271 µM.

For “ACAUGUGUUGUAGGAUAUAGGAGACAUGAGGAUCACCCAUGUUGAUUCAUGUCUAUGGAAACGUCCUAGAAGGACGACAACAUG [Ex NG2 #20] (Eterna round: R96, puzzle: Exclusion NG 2)”, which “apparent KD of MS2 coat protein” value (input ligand: FMN 200 uM) is on record?
The value was 0.237 µM.

What about the “apparent KD of MS2 coat protein” value [1] of the same sequence?
The value was 0.111 µM.

And the “apparent KD of MS2 coat protein” value (input ligand: none)?
The value was 0.201 µM.

Which “apparent KD of MS2 coat protein” value [3] does the source give for “AUACCACGAGGAUAUCGUCUAUUCCACAUGAGGAUCACCCAUGUUAUCCAUGUUUCGUUUCGAGAAGGCGUGUUUU [JR_E5_Sub075] (puzzle: Exclusion 5)” here?
Its value is 0.0541 µM.

How did the “apparent KD of MS2 coat protein” value [2] turn out when “UGGUAACAUGAGGAUCACCCAUGUCAGGAUAUCAGUAAGAAUAGAUUAGAUUAGAAUAUGAGAAGGGACUAUAG [Excluse me! 3 - Jieux - Exclusion 1] (puzzle: Exclusion 1)” was run?
Its value is 0.0385 µM.

What about the “apparent KD of MS2 coat protein” value [3] of the same sequence?
The value was 0.0389 µM.

What about the “apparent KD of MS2 coat protein” value [4] of the same sequence?
The value was 0.0478 µM.

How did the “apparent KD of MS2 coat protein” value [3] turn out when “UUAUUAAGUGUGAGGAUAUGCUGGUCCUUGGAUCAGCAGAAGGCACAUGAGGAUCACCCAUGUAAUAUAUUUAU [JL bmx4 3.09] (puzzle: Brourd's mod of Exclusion 4)” was run?
The value was 0.0758 µM.

How did the “apparent KD of MS2 coat protein” value [1] turn out when “UAUAUAUAGUAAGGAUAUGUAUUUAGUUUAUAAACAGAAGGUACUGACAUGAGGAUCACCCAUGUUUUAGUGUGGGCAUGUAGA [JMF's solution 14] (Eterna round: R96, puzzle: Exclusion NG 1)” was run?
The value was 0.0712 µM.

For “GGAUCGAGUGUGAGGAUAUGCAGGUCCUUGGAUCUGCAGAAGGCACAUGAGGAUCACCCAUGUGAUCAAGAUCC [Mat - Exclusion 4 - Eli Mod - D47] (Eterna round: R97, puzzle: Brourd's mod of Exclusion 4)”, which “apparent KD of MS2 coat protein” value (input ligand: FMN 200 uM) is on record?
The value was 0.0366 µM.

And the “apparent KD of MS2 coat protein” value (input ligand: none)?
The value was 0.777 µM.

Which results are given for “UAUUAACAAGUAAGAUCCUACAUGAGGAUCACCCAUGUGCUCGUCUUAUAAGGUACUGUGACGAAAGUCACGGUACC [Sensor 3, v1 - 72] (puzzle: Sensor v3, turn-off variant 1)”?
apparent KD of MS2 coat protein [2]: 0.0376 µM; apparent KD of MS2 coat protein [3]: 0.0467 µM; apparent KD of MS2 coat protein [4]: 0.0394 µM

With “AGUACUAACACGAAAGUGUUAGUACAAUAAGCUUGUGAAACAUGAGGAUCACCCAUGUCCUCAUGAGCUCGUCUUAU [salish99_TOv2_r3_051] (puzzle: Sensor v3, turn-off variant 2)” as the sequence, how does the “apparent KD of MS2 coat protein” value [2] read?
The value was 0.0778 µM.

And the “apparent KD of MS2 coat protein” value [3]?
Its value is 0.00595 µM.

What about the “apparent KD of MS2 coat protein” value [4] of the same sequence?
Its value is 0.0679 µM.

“GGUGGACAUGAGGAUCACCCAUGUGAGGAUAUCGGCUAUCUUAUCGCUGUCGGUUGCUCGAGAAGGCACAUUGU [Exclusion 1 V96] (puzzle: Exclusion 1)” was tested. Which “apparent KD of MS2 coat protein” value [3] did it give?
Its value is 0.0712 µM.

Which “apparent KD of MS2 coat protein” value (input ligand: FMN 200 uM) does the source give for “GGCAUCGGAGGAUAUACUUAUGGUGAUGCCCGAAGCUUUCUACUUGAGGAUCACCCAAGUAGAAGGCCGAUGCC [jl-ex2.4.79 ViennaUCT mod] (Eterna round: R97, puzzle: Exclusion 2)” here?
Its value is 0.0112 µM.

What about the “apparent KD of MS2 coat protein” value (input ligand: none) of the same sequence?
Its value is 0.0127 µM.

For “GAAGAGACAGGAUAUACAUGAGGAUCACCCAUGUGAGUAUGUUAGAGGCGGAGGAGAUGUAGAAGGGUCAAAGA [JR_Exclu3_Sub017] (puzzle: Exclusion 3)”, which “apparent KD of MS2 coat protein” value [2] is on record?
Its value is 0.0399 µM.

And the “apparent KD of MS2 coat protein” value [3]?
Its value is 0.0196 µM.

And the “apparent KD of MS2 coat protein” value [4]?
Its value is 0.0316 µM.

Which “apparent KD of MS2 coat protein” value [2] does the source give for “GAUUGACAUGAGGAUCACCCAUGUGAGGAUAUCGGCUGGACCGUGUUGGCUUGCCUCUCGAGAAGGCGCAUAGG [Exclusion 1 V52] (puzzle: Exclusion 1)” here?
Its value is 0.0388 µM.

And the “apparent KD of MS2 coat protein” value [3]?
Its value is 0.035 µM.

What about the “apparent KD of MS2 coat protein” value [4] of the same sequence?
The value was 0.0438 µM.

What does the source list for “CGCUGGACAGGAUAUGUUCUUGGGCACUUGAGGAUCACCCAAGUCAUCGGGACAUCAGGCACAGAAGGGUUGUUGG [salish99_ex5_r4_028] (Eterna round: R97, puzzle: Exclusion 5)”?
apparent KD of MS2 coat protein (input ligand: FMN 200 uM): 0.0255 µM; apparent KD of MS2 coat protein (input ligand: none): 0.0271 µM

With “GCUAGAGCAGGAUAUUCAAAACCUCACAUGAGGAUCACCCAUGUGGCCGAAAGGCCGGGAGGAGAAGGGCUCUAGC [Mat - Exclusion 5 - Eli mod - D84] (puzzle: Exclusion 5)” as the sequence, how does the “apparent KD of MS2 coat protein” value [2] read?
The value was 0.0416 µM.

What about the “apparent KD of MS2 coat protein” value [3] of the same sequence?
The value was 0.0151 µM.

And the “apparent KD of MS2 coat protein” value [4]?
The value was 0.0172 µM.

How did the “apparent KD of MS2 coat protein” value (input ligand: FMN 200 uM) turn out when “CGGUAAAUAGGAUAUACAUGAGGAUCACCCAUGUUCCAUAGCACUCGGAGGGUUCCCAGUAGAAGGGUUGGCCU [EX3 C.17] (Eterna round: R97, puzzle: Exclusion 3)” was run?
Its value is 0.016 µM.

What about the “apparent KD of MS2 coat protein” value (input ligand: none) of the same sequence?
Its value is 0.0194 µM.

What does the source list for “GAUCCUCAGACGGACGUCACGAAACAUGAGGAUCACCCAUGUGAGGAUAUCUCCAAAAGGUCGGCAGAGAAGGCACCAUAACAA [Eternabot solution 19] (Eterna round: R96, puzzle: Exclusion NG 3)”?
apparent KD of MS2 coat protein (input ligand: FMN 200 uM): 0.261 µM; apparent KD of MS2 coat protein [1]: 0.131 µM; apparent KD of MS2 coat protein (input ligand: none): 0.139 µM

Which results are given for “GCGGGCUUGGGAGGAUAUACAUGAGGAUCACCCAUGUGUGUUCGGGCUGGCCGGUUUGGGCGCGUGUAGAAGGCUCGGGUUUGC [less GC, A 14%] (Eterna round: R96, puzzle: Exclusion NG 2)”?
apparent KD of MS2 coat protein (input ligand: FMN 200 uM): 0.0251 µM; apparent KD of MS2 coat protein [1]: 0.0134 µM; apparent KD of MS2 coat protein (input ligand: none): 0.0161 µM

Which results are given for “UGCUAGUCAGGAUAUACGAACAUGUCAAAAGACGUGAAGGGACAUGAGGAUCACCCAUGUAGAAGGGACUAGCA [salish99_ex2_r3_005] (puzzle: Exclusion 2)”?
apparent KD of MS2 coat protein [2]: 0.158 µM; apparent KD of MS2 coat protein [3]: 0.0271 µM; apparent KD of MS2 coat protein [4]: 0.0239 µM

Which results are given for “AAGUACCGUCACGAUAGUGAUGGUACAACAAGCAAGUGUACAUGAGGAUCACCCAUGUCCUCUUUUGCUCGUCUUAU [Sensor 3 - 95] (puzzle: Sensor v3, turn-off variant 2)”?
apparent KD of MS2 coat protein [2]: 0.0197 µM; apparent KD of MS2 coat protein [3]: 0.0169 µM; apparent KD of MS2 coat protein [4]: 0.0186 µM

How did the “apparent KD of MS2 coat protein” value (input ligand: FMN 200 uM) turn out when “CUUUUGUGAGGAUAUUGGUAGUAAAUAAAUAAAAUUAUUACCGAGAAGGUACAUGAGGAUCACCCAUGUUCCUC [Salish 062 v18] (Eterna round: R97, puzzle: Exclusion 4)” was run?
Its value is 0.0321 µM.

What about the “apparent KD of MS2 coat protein” value (input ligand: none) of the same sequence?
The value was 0.0182 µM.

Source: the supplement of paper PMC9170038
